B1: EREDBC: 2-enoate reductase (ERED) from Bacillus coagulans 36D1 (protein)
chain: MKYKKLFETVKIRNVELKNRYAMAPMGPLGLADAEGGFNQRGIEYYTARARGGTALIITGVTFVDNEVEEHGMPNVPCPTHNPVHFVRTSKEMTERIHAYDSKIFLQMSAGFGRVTIPTNLGEYPPVAPSPIPHRWLDKTCRELTVEEIHSIVRKFGDGAFNAKRAGFDGVQIHAVHEGYLLDQFAIAFFNKRTDAYGGPLENRLRFAREIVEEIKQRCGEDFPVTLRFSPKSFIKDWREGALPGEEFEEKGRDLDEGIEAAKLLVSYGYDALDVDVGSYDSWWWSHPPMYQKKGLYIPYARLVKEAVDVPVLCAGRMDNPDLALAALEDGACDIISLGRPLLADPDYVNKLRIGQVADIRPCLSCHEGCMGRIQEYSSLGCAVNPAACREKEAALTPALKKKRVLIAGGGVAGCEAARVLALRGHEPVIFEKSNRLGGNLIPGGAPDFKEDDLALVAWYEHTLERLGVEIHLNTALTKEEILAANVDAVLIATGSNPKILPLDGKNKVFTAEDVLLDKVDAGQHVVIVGGGLVGCELALNLAEKGKDVSLVEMQDKLLAVNGPLCHANSDMLERLVPFKGVQVYTSSKIVDTTEKTAVVDVDGELREIEADSIVLAVGYSAEKSLYEDLKFEVADLHVVGDARKVANIMYAIWDAYEVAANL
B2: EREDCA: 2-enoate reductase (ERED) from Clostridium acetobutylicum DSM 1731 (protein)
chain: MNKYKKLFEPIKIGKCEIKNRFALAPMGPLGLADSEGGFNQRGIDYYTERAKGGTGLIITGVTFVDNEVEEHGMPNCPCPTHNPVQFVRTGREMTERIHAYNSKVFLQMSGGFGRVTIPTNLGEFPPVAPSPIQHRWLDKTCRELTVDEIKSIVKKFGEGAFNAKRAGFDGVQIHAVHEGYLIDQFAISLFNHRTDEYGGSLENRLRFAREIVEEIKNRCGEDFPVTLRYSPKSFIKDLRDGALPGEEFVEKGRDLDEGVEAAKLLVSYGYDALDTDVGSYDSWWWSHPPMYQEKGLYRKYAKLMKDTVDVPVICAGRMDDPDMALEAVENGTCDVISLGRPLLADPDYVNKLRSNKCKSIRPCISCQEGCMGRVQHYSMLNCAVNPQACKERANSLTPIIKSKKVLIVGGGVAGCEAARVLALRGHEPVLYEKSNRLGGNLIPGGAPSFKEDDIALADWYTNTLKELNVEVNLNSEVTKEQILNSKFDTVIVATGSTPKVFPLGDDEKVFTAAEVLLGQKDPGETTVVVGGGLVGCELALDLAKKGKKVTIVEALNKILALNGPLCSANSEMLQKLIPFNGIDVKANSKVKGYKNGLLKMETENGIEELPCDSVILSVGYKEENSLYKELEFEIPEIYLLGDARKVSNIMYGIWDAFEVANHI

Legend:
[1] = Whole-cell biotransformation of muconic acid by E. coli expressing EREDs; format: cell-based; details: 0.7 mM, 24-hr incubation
Experimental: After a 24-hr incubation, no muconic acid or 2-hexenedioic acid were detected in the culture, and a 99% yield of adipic acid was obtained (FIGS. 8a, 8b, and 8c). […] The 3-hexenedioic acid-like compound appears to be an inefficient substrate for these EREDS. This is similar to the mutated 2,4-dienoyl-CoA reductases from E. coli, which catalyze hydrogenation of 2,4-dienoyl CoA into 3-enoyl CoA (Tu, X., Hubbard, P. A., Kim, J. J. P. & Schulz, H. Two distinct proton donors at the active site of Escherichia coli 2,4-dienoyl-CoA reductase are responsible for the formation of different products. Biochemistry 47, 1167-1175 (2008).).

[2] = In vitro reductase activity of purified EREDs, NADH oxidation at 340 nm; format: biochemical; details: for activity against 2-hexenedioic acid: purified enzyme, anaerobic, NADH, aqueous buffer
Experimental: (§1) The C═C reducing activity of EREDs was examined. Enzyme activity of purified EREDs was measured spectrophotometrically in 96-well plates by following incubation for 3-5 min at 30° C. in the anaerobic chamber as described in M. Buhler, H. Simon, Hoppe-Seyler's Zeitschrift fur Physiologische Chemie 1982, 363, 609-625. Buffers and reagents were degassed and sparged with Ar. Reaction mixture contained potassium phosphate (100 mM and pH 7.0), NADH (0.5 mM), indicated substrates, and proteins (0.1-50 μg) in a final volume of 200 μL. Enzyme reactions were monitored by following the decrease in absorbance at 340 nm (ε340 nm=6,220/M·cm) due to oxidation of NADH to NAD+.
(§2) For in vitro biochemical characterization, enzyme activities of purified EREDs were measured with 2-hexenedioic acid, cis-cis-muconic acid, trans-trans muconic acid, trans-cinnamic acid, trans-2-methyl-2-butenoic acid, trans-2-butenoic acid, acrolein, 2-cyclohexen-1-one, and 3-methyl-2-cyclohexenone. […] [Feng, J. et al. Discovery and Characterization of BlsE, a Radical S-Adenosyl-L-methionine Decarboxylase Involved in the Blasticidin S Biosynthetic Pathway. PLoS ONE 8 (2013)].
To increase the dissolved substrate concentration, 2-hexenedioic acid was dissolved in a reaction mixture containing […] (final concentration) isopropanol, and kinetic constants of EREDBC and EREDCA were determined.

[3] = as above; format: biochemical
Experimental: as §1, §2

[4] = Oxygen tolerance (residual activity) of purified EREDs on storage; format: physicochemical; details: for retained initial activity, storage in the absence of oxygen / retained initial activity, storage in the presence of air: three days; for retained initial activity, storage in the absence of oxygen: 4° C.
Experimental: Purified EREDs were placed in 5 mL glass tubes tightly capped with air-tight rubber stoppers. Anaerobic tubes were filled with anaerobic gas mixture (80% N2, 10% H2, and 10% CO2) and aerobic tubes were filled with atmospheric air. The tubes were kept on ice for a week and a small aliquots of EREDs (5 ul) were withdrawn by a syringe every day to measure residual activity in a reaction mixture containing 100 mM potassium phosphate buffer (pH 7.0), 0.5 mM NADH, indicated substrates (0.25 mM 2-hexenedioic acid for EREDBC and 0.75 mM cinnamic acid for EREDCA, and protein (1 μg) in a final volume of 200 μL.

[5] = purified enzyme, anaerobic, NADH

Row | Molecule | yield of adipic acid from cis,cis-muconic acid [1] | yield of adipic acid from trans,trans-muconic acid [1] | Activity [U/mg protein] 2-Hexenedioic acid [29 mM] ([2]; 29 mM, dissolved in aqueous buffer) | Activity [U/mg protein] 2-Hexenedioic acid [35 mM] ([2]; 35 mM, dissolved in 0.25 mM isopropanol) | activity against 2-hexenedioic acid [2] | Activity [U/mg protein] trans-Cinnamic acid [1.0 mM] ([3]; 1.0 mM, titrated with 1N NaOH) | Activity [U/mg protein] Acrolein [15 mM] ([3]; 15 mM) | Activity [U/mg protein] trans-2-Butenoic acid [50 mM] ([3]; 50 mM) | Activity [U/mg protein] 2-Cyclohexen-1-one [200 mM] ([3]; 200 mM) | Activity [U/mg protein] 3-Methyl-2-cyclohexenone [200 mM] ([3]; 200 mM) | activity against 2-cyclohexen-1-one [3, 5] | activity against 3-methyl-2-cyclohexenone [3, 5] | activity against acrolein [3, 5] | activity against trans-2-butenoic acid [3, 5] | activity against trans-cinnamic acid [3, 5] | retained initial activity, storage in the absence of oxygen [4] | retained initial activity, storage in the presence of air ([4]; air (21% oxygen)) | residual activity, storage in the presence of air ([4]; one day, air (21% oxygen))
1 | B1 | 99% | 99% | 0.09 ± 0.02 U/mg protein | 2.3 ± 0.04 U/mg protein | 0.09 U/mg protein | 0.39 ± 0.001 U/mg protein | 0.036 ± 0.005 U/mg protein | 0.037 ± 0.010 U/mg protein | 0.08 ± 0.03 U/mg protein | 0.13 ± 0.03 U/mg protein | 0.08 U/mg protein | 0.13 U/mg protein | 0.037 U/mg protein | 0.036 U/mg protein | 0.39 U/mg protein | 35% | 33% | 
2 | B2 | 99% | 99% |  |  | up to 0.05 U/mg protein |  |  |  |  |  |  |  |  | 0.008 U/mg protein | 3.5 U/mg protein | 19% | completely inactivated | 30%

Source: patent US12371675B2, “Process and microorganism for synthesis of adipic acid from carboxylic acids” (THE GOVERNING COUNCIL OF THE UNIVERSITY OF TORONTO, priority 2015, dated 2025)
